Results on one substance are retold here after patent US20190144565A1 (UCB, published 2019).

Experiment [1] has as its target IgE-Fc, the Fc portion of human IgE (Cε2-Cε4 domains, V224-K547 by Dorrington & Bennich numbering, carrying a C225A mutation) (human) (UniProt P01854). Briefly: flow cytometry, Alexa488 IgE-Fc on RBL-SX38 cells; control at 1 ug/mL.
Experiment [2] has the same target. Kind of experiment: flow cytometry, Alexa488 IgE-Fc on RBL-SX38 cells; control at 10 ug/mL.
For experiment [3] the target is unchanged. Kind of experiment: flow cytometry, Alexa488 IgE-Fc on RBL-SX38 cells; control at 31 ug/mL.
The target is the same in experiment [4]. Kind of experiment: flow cytometry, Alexa488 IgE-Fc on RBL-SX38 cells; control at 100 ug/mL.
Experiment [5] shares this target. Kind of experiment: flow cytometry, Alexa488 IgE-Fc on RBL-SX38 cells; control at 3.1 ug/mL.

IgE-Fc, the Fc portion of human IgE (Cε2-Cε4 domains, V224-K547 by Dorrington & Bennich numbering, carrying a C225A mutation) (human), sequence (P01854 other isoform, or with tags, fused parts or gaps C225A C225A limits assumed): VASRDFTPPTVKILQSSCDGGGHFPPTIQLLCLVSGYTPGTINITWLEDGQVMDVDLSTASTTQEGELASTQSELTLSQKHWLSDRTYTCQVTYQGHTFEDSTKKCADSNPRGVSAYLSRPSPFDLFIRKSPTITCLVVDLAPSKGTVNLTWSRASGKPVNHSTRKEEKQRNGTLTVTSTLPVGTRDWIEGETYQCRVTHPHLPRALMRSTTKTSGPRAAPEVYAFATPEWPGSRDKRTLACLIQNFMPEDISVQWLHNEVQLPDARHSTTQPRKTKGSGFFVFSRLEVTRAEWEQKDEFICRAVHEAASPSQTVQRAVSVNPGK

Consider Isotype control (antibody), for which the dissociation rate of IgE-Fc from FcεRI on cells in experiment [1] amounted to 1.25e-05 s⁻¹; in experiment [2] it was 1.35e-05 s⁻¹; in experiment [3], 1.28e-05 s⁻¹; in experiment [4], 1.3e-05 s⁻¹; in experiment [5], 1.19e-05 s⁻¹.
